This note sets out measurements from paper PMC7363144, “Cryo-electron microscopy structure and potential enzymatic function of human six-transmembrane epithelial antigen of the prostate 1 (STEAP1)” (The Journal of Biological Chemistry, 2020).

B1: Fab120.545 mutant R32LE (Fab, V domains shown)
VH: DVQVQESGPGLVKPSQSLSLTCTVTGYSITSDYAWNWIRQFPGNKLEWMGYISNSGSTSYNPSLKSRISITRDTSKNQFFLQLISVTTEDTATYYCARERNYDYDDYYYAMDYWGQGTTLTVSA
VL: DIVMSQSPSSLAVSVGEKVTMSCKSSQSLLYESNQKNYLAWYQQKPGQSPKLLIYWASTRESGVPDRFTGSGSGTDFTLTISSVKAEDLAVYYCQQYYNYPRTFGGGTKLEIK
notes: as the heavy chain of m2; variable region in PDB 6Y9B; as the light chain of m2 with R32E; variable region of the parent in PDB 6Y9B; source: gift from Genmab BV, produced at the authors' request
B2: Fab120.545 mutant D103HA,D105HA,D106HA (Fab, V domains shown)
VH: DVQVQESGPGLVKPSQSLSLTCTVTGYSITSDYAWNWIRQFPGNKLEWMGYISNSGSTSYNPSLKSRISITRDTSKNQFFLQLISVTTEDTATYYCARERNYAYAAYYYAMDYWGQGTTLTVSA
VL: DIVMSQSPSSLAVSVGEKVTMSCKSSQSLLYRSNQKNYLAWYQQKPGQSPKLLIYWASTRESGVPDRFTGSGSGTDFTLTISSVKAEDLAVYYCQQYYNYPRTFGGGTKLEIK
notes: as the heavy chain of m2 with D103A, D105A, D106A; variable region of the parent in PDB 6Y9B; as the light chain of m2; variable region in PDB 6Y9B; also called Fab-AAA; source: gift from Genmab BV, produced at the authors' request
B3: Fab120.545 mutant D103HN,D105HN,D106HN (Fab, V domains shown)
VH: DVQVQESGPGLVKPSQSLSLTCTVTGYSITSDYAWNWIRQFPGNKLEWMGYISNSGSTSYNPSLKSRISITRDTSKNQFFLQLISVTTEDTATYYCARERNYNYNNYYYAMDYWGQGTTLTVSA
VL: DIVMSQSPSSLAVSVGEKVTMSCKSSQSLLYRSNQKNYLAWYQQKPGQSPKLLIYWASTRESGVPDRFTGSGSGTDFTLTISSVKAEDLAVYYCQQYYNYPRTFGGGTKLEIK
notes: as the heavy chain of m2 with D103N, D105N, D106N; variable region of the parent in PDB 6Y9B; as the light chain of m2; variable region in PDB 6Y9B; also called Fab-NNN; source: gift from Genmab BV, produced at the authors' request
B4: Fab120.545 mutant N99LD (Fab, V domains shown)
VH: DVQVQESGPGLVKPSQSLSLTCTVTGYSITSDYAWNWIRQFPGNKLEWMGYISNSGSTSYNPSLKSRISITRDTSKNQFFLQLISVTTEDTATYYCARERNYDYDDYYYAMDYWGQGTTLTVSA
VL: DIVMSQSPSSLAVSVGEKVTMSCKSSQSLLYRSNQKNYLAWYQQKPGQSPKLLIYWASTRESGVPDRFTGSGSGTDFTLTISSVKAEDLAVYYCQQYYDYPRTFGGGTKLEIK
notes: as the heavy chain of m2; variable region in PDB 6Y9B; as the light chain of m2 with N99D; variable region of the parent in PDB 6Y9B; source: gift from Genmab BV, produced at the authors' request

T1 sequence (Q9UHE8 2-339): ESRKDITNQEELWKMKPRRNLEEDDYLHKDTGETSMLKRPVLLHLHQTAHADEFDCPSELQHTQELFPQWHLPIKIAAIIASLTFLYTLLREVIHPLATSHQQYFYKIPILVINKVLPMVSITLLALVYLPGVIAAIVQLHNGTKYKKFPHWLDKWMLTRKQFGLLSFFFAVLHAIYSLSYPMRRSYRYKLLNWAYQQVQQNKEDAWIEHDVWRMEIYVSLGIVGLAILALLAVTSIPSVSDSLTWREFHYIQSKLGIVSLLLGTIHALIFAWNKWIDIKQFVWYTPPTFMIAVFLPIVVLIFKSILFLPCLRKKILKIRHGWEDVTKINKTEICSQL

This assay has as its target T1, six-transmembrane epithelial antigen of the prostate 1 (STEAP1), full-length human, C-terminal Strep-tag (Homo sapiens).
T1 construct: human STEAP1, UniProtKB Q9UHE8, full length; codon-optimized DNA from GeneArt; Homotrimer in the cryo-EM structure; in digitonin micelles; The PDB model holds residues 67-312 only; source: HEK293 GnTI- suspension cells, purified in digitonin (Strep-Tactin resin, SEC)
As to the kind of experiment: SEC; 25 µl STEAP1 (0.28 mg/ml) mixed with a ~2-fold molar excess of Fab variant (35 µl at 0.5 mg/ml), several hours, Superdex 200 increase 3.2/300, 20 mM Tris pH 7.8, 200 mM NaCl, 0.08% digitonin; heme absorbance at 412 nm and tryptophan fluorescence. The conditions noted are these: both partners purified. On the technique in general: Size exclusion chromatography separates by hydrodynamic size, large species first.
With B1, the binding result is “no binding”. As for B2, the entry is “no binding”; as for B3, “no binding”. Take B4: the binding result is reported as “no binding”.
